Source: patent US12214059B2, “Cleavable radioligands for targeting cell surface receptors and uses thereof” (Full-Life Te[…] Limited, priority 2021, dated 2025)

Tests used:
[1] = system: PC-3 PIP tumor-bearing mice; test: Biodistribution study in SCID mice bearing PC3-PIP tumor; format: in vivo, mouse; settings: for T/K at 4 h (tumor uptake/kidney uptake) / T at 24 h (tumor uptake) / T/K at 24 h (tumor uptake/kidney uptake) / T at 96 h (tumor uptake) / T/K at 96 h (tumor uptake/kidney uptake): PC3 PIP tumor-bearing mice
Description: Biodistribution Study in SCID Mice Bearing PC3-PIP Tumor
Severe combined immunodeficient (ICR-SCID) mice from the Institute of Cancer Research (Taconic Farms, Germantown, NY) were utilized for these studies. […] These mice received bilateral subcutaneous rear flank injections of approximately 10×10^6 PC-3 PIP cells (prostate cancer cell PC-3 stably expressing human PSMA) suspended in 100 μL of 0.9% NaCl. […] The tissues and organs were weighed, counted in a PerkinElmer Wizard 3 automatic γ counter, and the percent injected dose (% ID) and % ID/g of each organ or tissue were calculated, as shown in Tables 5-24 and FIG. 1 and FIG. 2.

PSMA = biological target: T1, PSMA (Homo sapiens, UniProt Q04609); test: Cell-based radioligand competitive binding assay (^125I-C-8, LNCaP cells); settings: C-1 = 1.00
T1 construct: host or cells: LNCaP cells
Description: The culture medium was replaced with fresh medium every 2-3 days. Experiments were performed with cells at 70-80% confluence.
The final volume in each well was maintained at 200 μL and insufficient volume was adjusted by the binding buffer.

[2] = Ex-vivo mouse plasma stability study of ^177Lu-labeled compounds; format: in vitro ADME; settings: 37° C.
Description: Plasma Stability Study (Mouse and Human)
Mouse blood was collected via cardiac puncture of the left ventricle. Blood was placed into heparin-coated microfuge tubes and then centrifuged at 3500 rpm for 10 min to separate plasma for stability studies. Human plasma was purchased directly.
At each time point (0, 1, 2, 4, 24, 48 72 h), an aliquot of 25 μL sample was taken and mixed with 100 μL methanol containing 1% formic acid, vertex for 30-60 sec, then centrifuged at 20000 rpm for 10 min. 100 μL supernatant was collected and diluted with 40 μL H2O. 100 μL of the resulting mixture was injected to radio-HPLC for stability assessment, as shown examples FIG. 2 and FIG. 3. The best-fit T½ value of test compounds were calculated by fitting the data with linear or non-linear regression using GraphPad Prism 8.0.1.

LNCap tumor-bearing mice = test: Biodistribution study in CB-17 SCID mice bearing LNCap tumor; format: in vivo, mouse
Description: Biodistribution Study in CB-17 SCID Mice Bearing LNCap Tumor
All animal care and experimental procedure were performed by following the animal protocols approved by the ethics committee of China Institute of Radiation Protection. The CB-17 SCID mice (Charles River, Beijing) were utilized for these studies. […] These mice received subcutaneous rear flank injections of approximately 4×10^6 LNCap cells suspended in 200 μL of phosphate-buffered saline (PBS) and Matrigel (Corning) (1/1).

[3] = based on the mean value of the IC50 number
[4] = * = value obtained using nonlinear regression

T1 sequence (Q04609 whole entry): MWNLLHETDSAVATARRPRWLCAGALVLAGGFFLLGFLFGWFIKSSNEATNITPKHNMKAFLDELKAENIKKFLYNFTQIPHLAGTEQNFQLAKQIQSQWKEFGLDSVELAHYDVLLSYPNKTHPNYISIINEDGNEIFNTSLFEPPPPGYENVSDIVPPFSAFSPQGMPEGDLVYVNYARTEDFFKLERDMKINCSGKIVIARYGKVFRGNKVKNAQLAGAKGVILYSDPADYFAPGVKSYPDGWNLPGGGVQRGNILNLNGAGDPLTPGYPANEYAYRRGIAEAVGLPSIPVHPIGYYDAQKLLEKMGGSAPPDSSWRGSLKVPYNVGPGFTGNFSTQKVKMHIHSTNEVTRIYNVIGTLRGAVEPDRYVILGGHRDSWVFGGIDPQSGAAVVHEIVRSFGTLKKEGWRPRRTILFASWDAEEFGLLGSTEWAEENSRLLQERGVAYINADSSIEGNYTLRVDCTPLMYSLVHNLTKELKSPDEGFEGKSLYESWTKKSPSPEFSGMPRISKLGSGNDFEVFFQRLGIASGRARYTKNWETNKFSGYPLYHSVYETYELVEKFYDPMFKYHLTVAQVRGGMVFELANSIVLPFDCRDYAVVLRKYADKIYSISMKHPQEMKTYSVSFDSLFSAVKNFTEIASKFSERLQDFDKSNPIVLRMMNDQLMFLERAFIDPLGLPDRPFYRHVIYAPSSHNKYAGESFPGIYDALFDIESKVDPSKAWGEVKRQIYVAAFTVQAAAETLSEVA

Compound | T/K at 4 h (tumor uptake/kidney uptake) [1] | T at 24 h (tumor uptake) [1] | T/K at 24 h (tumor uptake/kidney uptake) [1] | T at 96 h (tumor uptake) [1] | T/K at 96 h (tumor uptake/kidney uptake) [1] | Relative Binding Affinity (PSMA; [3]) | Relative Binding Affinity (PSMA; relative) | % Remaining 0 min [2] [%] | % Remaining 1 h [2] [%] | % Remaining 4 h [2] [%] | % Remaining 24 h [2] [%] | % Remaining 48 h [2] [%] | % Remaining 72 h [2] [%] | other results
O=C(O)CC[C@H](NC(=O)N[C@@H](CCCCNC(=O)[C@H](Cc1ccc2ccccc2c1)NC(=O)[C@H]1CC[C@H](CNC(=O)[C@H](CCCCNC(=O)CN2CCN(CC(=O)O)CCN(CC(=O)O)CCN(CC(=O)O)CC2)NC(=O)[C@H](CCC(=O)O)NC(=O)CCCc2ccc(I)cc2)CC1)C(=O)O)C(=O)O [Example C-2, 4pIBA-Glu-Lys(DOTA)-Trx-2NaI-eKuE, reference compound] | 0.3 | 41.1 | 1.0 | 20.0 | 3.7 | 1.78 | 1.78 | 100 | 100 | 100 | 100 | 100 | 100 | uptake ratio between tumor to kidney ([1]; compared to PSMA-617 (C-1)): poor uptake ratio between tumor to kidney; T½ (h) [2, 4]: Stable
Cc1ccc(CCCC(=O)NCCCC[C@H](NC(=O)CN2CCN(CC(=O)O)CCN(CC(=O)O)CCN(CC(=O)O)CC2)C(=O)NCC2CCC(C(=O)N[C@@H](Cc3ccc4ccccc4c3)C(=O)NCCCC[C@H](NC(=O)N[C@@H](CCC(=O)O)C(=O)O)C(=O)O)CC2)cc1 (stereo partly shown) [Example C-10, DOTA-Lys(pTBA)-Trx-2NaI-eKuE] |  |  |  |  |  |  | 0.92 |  |  |  |  |  |  | T at 24 h (tumor uptake) (LNCap tumor-bearing mice; LNCap tumor-bearing mice, 24 h): 46.5; T/K at 24 h (tumor uptake/kidney uptake) (LNCap tumor-bearing mice; LNCap tumor-bearing mice, 24 h): 0.89; T at 96 h (tumor uptake) (LNCap tumor-bearing mice; LNCap tumor-bearing mice, 96 h): 34.9; T/K at 96 h (tumor uptake/kidney uptake) (LNCap tumor-bearing mice; LNCap tumor-bearing mice, 96 h): 3.17; uptake ratio between tumor to kidney (LNCap tumor-bearing mice; compared to PSMA-617 (C-1)): poor uptake ratio between tumor to kidney
O=C(O)CC[C@H](NC(=O)N[C@@H](CCCCNC(=O)[C@H](Cc1ccc2ccccc2c1)NC(=O)[C@H]1CC[C@H](CNC(=O)[C@H](CCCCNC(=O)CCCOC(=O)CNC(=O)CN2CCN(CC(=O)O)CCN(CC(=O)O)CCN(CC(=O)O)CC2)NC(=O)[C@H](CCC(=O)O)NC(=O)CCCc2ccc(I)cc2)CC1)C(=O)O)C(=O)O [Example I-3, 4pIBA-Glu-Lys(-ESL1-DOTA)-Trx-2NaI-eKuE] | 0.3 | 13.9 | 0.8 | 6.3 | 4.0 | 1.30 | 1.30 | 100 | 88.6 | 54.8 | 13.0 | 9.30 | 3.99 | T½ (h) [2, 4]: 4.9* h
HO-C18-gGlu-OEG-OEG-OEG-Lys(DOTA)-OEG-Trx-2NaI-eKuE [Example C-6, reference compound] |  |  |  |  |  | 0.05 | 0.05 |  |  |  |  |  |  | 
O=C(O)CC[C@H](NC(=O)N[C@@H](CCCCNC(=O)[C@H](Cc1ccc2ccccc2c1)NC(=O)[C@H]1CC[C@H](CNC(=O)[C@H](CCCCNC(=O)CCC(=O)NCCSSCCNC(=O)CN2CCN(CC(=O)O)CCN(CC(=O)O)CCN(CC(=O)O)CC2)NC(=O)[C@H](CCC(=O)O)NC(=O)CCCc2ccc(I)cc2)CC1)C(=O)O)C(=O)O [Example I-4, 4pIBA-Glu-Lys(-SSL1-DOTA)-Trx-2NaI-eKuE] | 0.1 | 0.79 | 0.2 | 0.3 | 1.2 | 0.95 | 0.95 |  |  |  |  |  |  | 
O=C(O)CCCCCCCCCCCCCCCCC(=O)N[C@@H](CCC(=O)NCCOCCOCC(=O)NCCOCCOCC(=O)N[C@@H](CCCCNC(=O)CCCOC(=O)CNC(=O)CNC(=O)CNC(=O)CNC(=O)CN1CCN(CC(=O)O)CCN(CC(=O)O)CCN(CC(=O)O)CC1)C(=O)NCCOCCOCC(=O)NC[C@H]1CC[C@H](C(=O)N[C@@H](Cc2ccc3ccccc3c2)C(=O)NCCCC[C@H](NC(=O)N[C@@H](CCC(=O)O)C(=O)O)C(=O)O)CC1)C(=O)O [Example I-46, HO-C18-gGlu-OEG-OEG-Lys(-ESL1-Gly-Gly-Gly-DOTA)-OEG-Trx-2NaI-eKuE] |  |  |  |  |  |  |  | 100 | 95.1 | 93.5 | 81.9 | 70.6 | 55.9 | T½ (h) [2, 4]: 102* h
HO-C18-gGlu-OEG-OEG-Gly-5hPA-Lys(DOTA)-OEG-Trx-2NaI-eKuE [Example I-49] |  |  |  |  |  | 0.09 | 0.09 |  |  |  |  |  |  | 
(HO-C18-gGlu-Lys(-OEG-DOTA)-OEG-OEG-OEG-NH2CH2CH2NH-TMA(-OEG-Trx-2NaI-eKuE)2 [Example C-7, reference compound] |  |  |  |  |  | 0.14 | 0.14 |  |  |  |  |  |  | 
O=C(O)CC[C@H](NC(=O)N[C@@H](CCCCNC(=O)[C@H](Cc1ccc2ccccc2c1)NC(=O)[C@H]1CC[C@H](CNC(=O)COCCOCCNC(=O)[C@H](CCCCNC(=O)CCCOC(=O)CNC(=O)CN2CCN(CC(=O)O)CCN(CC(=O)O)CCN(CC(=O)O)CC2)NC(=O)[C@H](CCCCNC(=O)COCCOCCNC(=O)COCCOCCNC(=O)[C@H](CCC(=O)O)NC(=O)CCCc2ccc(I)cc2)NC(=O)COCCOCCNC(=O)COCCOCCNC(=O)[C@H](CCC(=O)O)NC(=O)CCCc2ccc(I)cc2)CC1)C(=O)O)C(=O)O [Example I-7, 4pIBA-Glu-OEG-OEG-Lys(-OEG-OEG-Glu-4pIBA)-Lys(-ESL1-DOTA)-OEG-Trx-2NaI-eKuE] | 0.7 | 16.7 | 0.9 | 2.6 | 1.4 | 0.56 | 0.54 |  |  |  |  |  |  | 
DOTA-gGlu(-eLys-4pIBA)-Trx-2NaI-eKuE [Example C-9, reference compound] |  |  |  |  |  | 0.92 |  |  |  |  |  |  |  | 
[HO-C20-gGlu-Lys(-ESL1-ESL1-ESL1-DOTA)-OEG-OEG-OEG-NH2CH2CH2NH—]-TMA-(-OEG-Trx-2NaI-eKuE)2 [Example I-44] |  |  |  |  |  | 0.13 |  |  |  |  |  |  |  | 
O=C(O)CC[C@H](NC(=O)N[C@@H](CCCCNC(=O)[C@H](Cc1ccc2ccccc2c1)NC(=O)[C@H]1CC[C@H](CNC(=O)[C@H](CCCCNC(=O)CN2CCN(CC(=O)O)CCN(CC(=O)O)CCN(CC(=O)O)CC2)NC(=O)CCCOC(=O)CNC(=O)[C@H](CCC(=O)O)NC(=O)CCCc2ccc(I)cc2)CC1)C(=O)O)C(=O)O [Example I-2, 4pIBA-Glu-ESL1-Lys(DOTA)-Trx-2NaI-eKuE] | 0.6 | 32.4 | 5.0 | 9.8 | 10.1 | 1.59 | 0.75 | 100 | 95.6 | 93.2 | 76.5 | 67.5 | 57.3 | uptake ratio between tumor to kidney ([1]; mice bearing PC3-PIP tumor, compared to HTK01169 (C-2)): improved uptake ratio between tumor to kidney; T½ [2, 4]: 80.4 h
